The source of these data is patent EP4803541A1 (Changchun Genescience Pharmaceutical Co., Ltd., dated 2026).

Assay [1] addresses GH (GH stock solution) (UniProt P01241). The assay can be described thus: loss of dynamic binding capacity of the conjugated medium for GH after 0.5M NaOH 24h.
The target is the same in assay [2]. The assay can be described thus: affinity chromatography, VHH-conjugated medium loaded with GH stock solution; medium in 0.5M NaOH 0h.
Assay [3] shares this target. The assay can be described thus: affinity chromatography, VHH-conjugated medium loaded with GH stock solution; medium in 0.1M NaOH 0h.
Assay [4] has the same target. Nature of the assay: loss of dynamic binding capacity of the conjugated medium for GH after 0.1M NaOH 32h.
The target is the same in assay [5]. Nature of the assay: affinity chromatography, VHH-conjugated medium loaded with GH stock solution; medium in 0.1M NaOH 32h.
A further assay addresses rhGH protein (UniProt: P01241) (human) (UniProt P01241). Nature of the assay: ELISA on coated rhGH, anti-6*His HRP; sample after 0.5M NaOH 24h, against WT. On the set-up: unit not given beside the values. A general note: ELISA stands for enzyme-linked immunosorbent assay.
Assay [6] concerns the target GH (GH stock solution) (UniProt P01241). Nature of the assay: affinity chromatography, VHH-conjugated medium loaded with GH stock solution; medium in 0.5M NaOH 24h.
Assay [7] shares this target. The assay can be described thus: affinity chromatography, VHH-conjugated medium loaded with GH stock solution; medium in 0.1M NaOH 24h.
Assay [8] shares this target. The assay can be described thus: affinity chromatography, VHH-conjugated medium loaded with GH stock solution; medium in 0.5M NaOH 6h.
Assay [9] concerns the target T1, rhGH protein (UniProt: P01241) (human, UniProt P01241 27-217).
T1 construct: Coated at 5 ug/ml in the ELISA; also called human growth hormone
The assay can be described thus: ELISA on coated rhGH, anti-6*His HRP; sample after 0.3 M NaOH 24h.

Assay [10] has as its target T1, rhGH protein (UniProt: P01241). The assay can be described thus: ELISA on coated rhGH; sample after 0.5M NaOH 24h.

Chain of GH (GH stock solution) (P01241 27-217 limits assumed): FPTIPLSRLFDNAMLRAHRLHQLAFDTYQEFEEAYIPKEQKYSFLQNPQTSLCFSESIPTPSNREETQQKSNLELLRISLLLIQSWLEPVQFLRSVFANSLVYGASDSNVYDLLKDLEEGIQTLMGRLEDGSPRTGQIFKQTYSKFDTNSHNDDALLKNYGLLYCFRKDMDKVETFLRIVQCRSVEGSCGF
T1 sequence (P01241 27-217 limits assumed, one chain of several): as the sequence (P01241 27-217 limits assumed) above
Chain of rhGH protein (UniProt: P01241) (human) (UniProt P01241) (P01241 27-217 limits assumed, one chain of several): as the sequence (P01241 27-217 limits assumed) above

B1: M20 (First round) (VHH)
VHH: QVQLVESGGGLAQAGGSLRLSCAVSGMPEFARAMGWFRQAPGKERELVAAIEGIGATTYYADSVKGRFTISRDDAANTVLLQMNSLKPDDTAVYYCAAAFSVTIPTRARHWVDWGPGTLVTVSS
B1: the residual DBC (a decrease of DBC) with GH (GH stock solution) [1] is under 49%. In addition, the dynamic binding capacity at 10% breakthrough is 19.6 with GH (GH stock solution) [2]; 19.6 in the assay with GH (GH stock solution) [3]; 16.9 with GH (GH stock solution) [5]; 10.2 with GH (GH stock solution) [6]; 18 with GH (GH stock solution) [7]; 14.3 in the assay with GH (GH stock solution) [8]. Besides, the DBC decay rate in the assay with GH (GH stock solution) [4] was under 6%. Moreover, the EC50 against that of the WT after 0.5M alkali (% higher than WT) with rhGH protein amounted to 50.

B2: M31 (First round) (VHH)
VHH: QVQLVESGGGLAQAGGSLRLSCAVSGMPEFARAMGWFRQAPGKERELLAAIEGIGATTYYADSVKGRFTISRDDAANTVLLQMNSLKPDDTAVYYCAAAFSVTIPTRAEHWVDWGPGTLVTVSS
notes: tail DDDDK-SGGGGS-HHHHHH
For B2, the binding result in assay [9] is recorded as “binds”.

B3: M78 (Second round) (VHH)
VHH: QVQLVESGGGLAQAGGSLRLSCAVSGMPEFARAMGWFRQAPGKERELLAAIEGIGDTTYYADSVKGRFTISRDDAANTVLLQMNSLKPDDTAVYYCAAAFSVTIPTRARHWVYWGPGTLVTVSS
notes: Entry already carries A57D; G134R; D102Y); tail DDDDK-SGGRGS-HHHHHH
B3 returned a residual DBC (a decrease of DBC) with GH (GH stock solution) [1] of under 49%. Also, the dynamic binding capacity at 10% breakthrough with GH (GH stock solution) [2] is 16.3; in the assay with GH (GH stock solution) [3], 16.3; in the assay with GH (GH stock solution) [5], 15.4; with GH (GH stock solution) [6], 9.06; with GH (GH stock solution) [7] it was 16.3; with GH (GH stock solution) [8], 13.5. Moreover, in assay [10], the binding result is “binds”. The molecule further returned a DBC decay rate with GH (GH stock solution) [4] of under 6%.

B4: M29 (First round) (VHH)
VHH: QVQLVESGGGLAQAGGSLRLSCAVSGMPEFARAMGWFRQAPGKERELLAAIEGIGAKTYYADSVKGRFTISRDDAANTVLLQMNSLKPDDTAVYYCAAAFSVTIPTRARHWVDWGPGTLVTVSS
notes: tail DDDDK-SGGGGS-HHHHHH
In the case of B4, the binding result in assay [9] is listed as “binds”.

B5: M25 (First round) (VHH)
VHH: QVQLVESGGGLAQAGGSLRLSCAVSGMPEFARAMGWFRQAPGKERELLAAIEGIGATTYYADSVKGRFTISRDDAANTVLLQMNSLKPDDTAVYYCAAAFSVTIPTRARHWDDWGPGTLVTVSS
notes: tail DDDDK-SGGGGS-HHHHHH
For the molecule B5, the binding result in assay [9] is given as “binds”.

B6: M8 (First round) (VHH)
VHH: QVQLVESGGGLAQAGGSLRLSCAVSGMPEFARAMGWFRQAPGKERELLAAIEGIGATTYYADSVKGRFTISRDDAANTVLLQMNSLKPDDTAVYYCAAAFSVTIPTRARHWVYWGPGTLVTVSS
notes: tail DDDDK-SGGGGS-HHHHHH
With B6, in [9], the binding result was “binds”.
